Assay results taken from patent US20060212953, “Tr2, tr4, tr2/tr4 double knockouts and uses thereof” (published 2006).

Target: T1, TR4 (testicular orphan nuclear receptor 4, NR2C2) (UniProt P49116 SEQ:1-596)
T1 sequence: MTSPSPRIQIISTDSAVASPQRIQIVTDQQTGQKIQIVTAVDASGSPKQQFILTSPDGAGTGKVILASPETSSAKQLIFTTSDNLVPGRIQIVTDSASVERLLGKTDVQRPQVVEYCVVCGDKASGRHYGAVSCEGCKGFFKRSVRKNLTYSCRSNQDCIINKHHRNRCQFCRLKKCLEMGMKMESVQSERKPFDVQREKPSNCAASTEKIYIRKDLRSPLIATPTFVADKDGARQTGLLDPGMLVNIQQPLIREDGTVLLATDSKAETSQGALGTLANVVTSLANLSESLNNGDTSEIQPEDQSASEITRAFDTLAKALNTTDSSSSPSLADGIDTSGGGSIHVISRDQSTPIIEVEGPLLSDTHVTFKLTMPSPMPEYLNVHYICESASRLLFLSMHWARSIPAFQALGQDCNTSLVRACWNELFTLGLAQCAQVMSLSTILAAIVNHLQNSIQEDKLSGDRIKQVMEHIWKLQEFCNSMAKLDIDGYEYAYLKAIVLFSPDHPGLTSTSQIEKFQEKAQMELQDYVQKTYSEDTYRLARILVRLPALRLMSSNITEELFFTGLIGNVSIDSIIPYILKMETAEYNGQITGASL
Experiment: EMSA; supershifted by monoclonal anti-TR4 antibody #15; 10 mM HEPES pH 7.9, 100 mM KCl, 2.5 mM MgCl2, 0.5 mM EDTA, 1 mM DTT, room temperature 15 min
Details: tags: rabbit reticulocyte lysate (Promega); label: 32P 5' end
Experimental: TR4 proteins were synthesized in rabbit reticulocyte lysate (Promega), according to the manufacturer's instructions. The oligonucleotide probe (SEQ ID NO:46 nNOS-NHR, bp-198 to -211, 5′-[…]-3′) was end-labeled with [γ]³²P in a T4 polynucleotide kinase reaction (New England Biolabs). The EMSA reaction was performed with 2 μl TR4-containing lysate in an EMSA buffer (10 mM HEPES, pH 7.9, 6% (v/v) glycerol, 2% (v/v) Ficoll, 100 mM KCl, 0.5 mM EDTA, 2.5 mM MgCl₂, and 1 mM dithiothreitol). The reaction mixtures were incubated for 15 min. at room temperature, in the presence or absence of a mouse monoclonal anti-TR4 antibody (#15). The protein-DNA complexes were analyzed on a 5% native polyacrylamide gel. The results were visualized by autoradiography (Storm PhosphorImaging System, Amersham Pharmacia).

B1: nNOS-NHR probe (dsDNA)
DNA 1: CTGGTCAACCTTGACTTCCTT
DNA 2: AAGGAAGTCAAGGTTGACCAG
  binding result: binds
